Data reported in patent US20260242478A1 (published 2026).
Where no end group is shown, it is not given here.

Legend:
[1] = target: T1, Anti-CD28 Fab (SEQ ID NOs: 696, 697); assay: phage binding ELISA on captured anti-CD28 Fab; competitor: CD28 antigen
T1 construct: In the phage ELISA the Fab was biotinylated and captured on neutravidin coated plates
T1 sequence (VH, as listed by the source, chain 1 of 2): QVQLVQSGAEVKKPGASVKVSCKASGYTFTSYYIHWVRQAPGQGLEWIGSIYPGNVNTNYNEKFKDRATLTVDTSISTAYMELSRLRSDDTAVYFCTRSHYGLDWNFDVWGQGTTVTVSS
T1 sequence (VL, as listed by the source, chain 2 of 2): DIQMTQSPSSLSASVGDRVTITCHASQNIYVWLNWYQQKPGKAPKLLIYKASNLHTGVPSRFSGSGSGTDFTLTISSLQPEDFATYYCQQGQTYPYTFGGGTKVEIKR
Experimental: (§1) After panning, phage infected bacteria were plated out and colonies picked into 96 well blocks. Clonal phage was then amplified and separated from bacterial cells via centrifugation.
(§2) Clonal phage were harvested as crude supematants and screened via standard ELISAs. […] Prior to the addition of clonal phage, wells were incubated with blocking buffer and CD28 antigen or blocking buffer alone. Without washing or aspirating, clonal phage supematants were then added to the wells and incubated for a short time. Wells were then washed followed by detection of bound phage using a horse radish conjugated anti-M13 antibody. Clonal phage of interest were then sent for sequence analysis.

[2] = target: T1, Anti-CD28 Fab (SEQ ID NOs: 696, 697); assay: phage binding ELISA; biotinylated anti-CD28 Fab on neutravidin plate, bound phage detected with anti-M13 HRP;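 further: crude supernatants of clonal phage screened, wells pretreated with blocking buffer with or without CD28 antigen before brief phage incubation, washed, then bound phage detected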
Experimental: as §1, §2

[3] = target: T2, Anti-CD28 Fab (SEQ ID NOs: 696, 697); assay: phage ELISA on anti-CD28 Fab plates; competitor CD28 antigen pre-incubated in the wells
T2 construct: Biotinylated and captured on neutravidin coated plates in the phage ELISA
T2 sequence (VH, as listed by the source, chain 1 of 2): as the sequence (VH, as listed by the source, chain 1 of 2) above
T2 sequence (VL, as listed by the source, chain 2 of 2): as the sequence (VL, as listed by the source, chain 2 of 2) above
Experimental: as §1, §2

[4] = target: T2, Anti-CD28 Fab (SEQ ID NOs: 696, 697); assay: phage ELISA; biotinylated anti-CD28 Fab on neutravidin plates, bound phage detected with anti-M13 HRP
Experimental: as §1, §2

[5] = target: T3, Anti-CD28 Fab (SEQ ID NOs: 696, 697); assay: phage binding ELISA, Fab on plate pre-incubated with CD28 antigen as competitor
T3 construct: Biotinylated and captured on neutravidin coated plates in the phage ELISA
T3 sequence (VH, as listed by the source, chain 1 of 2): as the sequence (VH, as listed by the source, chain 1 of 2) above
T3 sequence (VL, as listed by the source, chain 2 of 2): as the sequence (VL, as listed by the source, chain 2 of 2) above
Experimental: as §1, §2

[6] = target: T3, Anti-CD28 Fab (SEQ ID NOs: 696, 697); assay: phage binding ELISA, biotinylated Fab on neutravidin plate, anti-M13 HRP detection;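 further: crude clonal phage supernatants added to Fab-coated wells pretreated with CD28 antigen or with blocking buffer only, bound phage measured after washing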
Experimental: as §1, §2

[7] = target: T4, Anti-CD28 Fab (SEQ ID NOs: 696, 697); assay: phage ELISA on captured anti-CD28 Fab; competitor CD28 antigen pre-incubated in the wells;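 further: clonal phage supernatants added to wells preloaded with CD28 antigen in blocking buffer, control wells buffer only, bound phage read via HRP-linked anti-M13 antibody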
T4 construct: Biotinylated and captured on neutravidin coated plates in the phage ELISA
T4 sequence (VH, as listed by the source, chain 1 of 2): as the sequence (VH, as listed by the source, chain 1 of 2) above
T4 sequence (VL, as listed by the source, chain 2 of 2): as the sequence (VL, as listed by the source, chain 2 of 2) above
Experimental: as §1, §2

[8] = target: T4, Anti-CD28 Fab (SEQ ID NOs: 696, 697); assay: phage ELISA; biotinylated anti-CD28 Fab on neutravidin plate, clonal phage supernatant, anti-M13 HRP

Binder | Phage binding ELISA, Anti-CD28 Fab signal in the presence of CD28 [3] | Phage binding ELISA, Anti-CD28 Fab signal [4] | Anti-CD28 Fab signal in the presence of CD28 [5] | Anti-CD28 Fab (SEQ ID NOs: 696, 697) signal [6] | also measured
YCEGHTPEYMQKCL [Phage-568] | – | – | – | – | Anti-CD28 Fab signal in the presence of CD28 [1]: 0.07; Anti-CD28 Fab signal [2]: 2.27
YCEGHSEEYISKCL [Phage-551] | 0.08 | 2.3 | – | – | –
YCDGHSTEYLWKCL (cysteine pairing not given here; also: displayed on phage by fusion to pIII, pIII and linker sequence not given here) [Phage-570] | – | – | – | – | Anti-CD28 Fab signal in the presence of CD28 [1]: 0.06; Anti-CD28 Fab signal [2]: 2.26
YCDGHLPIYMAKCL [Phage-552] | 0.14 | 2.3 | – | – | –
YCEGHSSEYMLKCL (Clonal phage of the Peptide-87 library, tested as crude supernatant; not shown: pIII of the bacteriophage to which the peptide is fused) [Phage-555] | – | – | 0.07 | 2.3 | –
YCDGHLPEYQEKCL (tested as crude clonal phage supernatant) [Phage-523] | – | – | – | – | Phage binding ELISA, Anti-CD28 Fab signal in the presence of CD28 [7]: 0.1; Phage binding ELISA, Anti-CD28 Fab signal [8]: 2.37
YCEGHTAEYMQKCL (tested as crude clonal phage supernatant) [Phage-519] | – | – | – | – | Phage binding ELISA, Anti-CD28 Fab signal in the presence of CD28 [7]: 0.08; Phage binding ELISA, Anti-CD28 Fab signal [8]: 2.38
YCEGHLPLYMWKCL [Phage-548] | 0.07 | 2.3 | – | – | –
YCDGHLPMYMMKCL (Clonal phage of the Peptide-87 library, tested as crude supernatant; not shown: pIII of the bacteriophage to which the peptide is fused) [Phage-561] | – | – | 0.14 | 2.28 | –
YCDGHLPEYMAKCL (tested as crude clonal phage supernatant) [Phage-521] | – | – | – | – | Phage binding ELISA, Anti-CD28 Fab signal in the presence of CD28 [7]: 0.13; Phage binding ELISA, Anti-CD28 Fab signal [8]: 2.37
YCDGHLDEYMAKCL [Phage-546] | 0.08 | 2.31 | – | – | –
YCDGHSPQYIEKCL [Phage-544] | 0.07 | 2.31 | – | – | –
YCEGHLPIYLEKCM [Phage-567] | – | – | – | – | Anti-CD28 Fab signal in the presence of CD28 [1]: 0.1; Anti-CD28 Fab signal [2]: 2.27
YCDGHAPQYMQKCL [Phage-566] | – | – | – | – | Anti-CD28 Fab signal in the presence of CD28 [1]: 0.11; Anti-CD28 Fab signal [2]: 2.28
YCEGHTMEYMWKCL [Phage-542] | 0.07 | 2.31 | – | – | –
YCQGHAPEYMAKCL (Clonal phage of the Peptide-87 library, tested as crude supernatant; not shown: pIII of the bacteriophage to which the peptide is fused) [Phage-562] | – | – | 0.1 | 2.28 | –
YCDGHSWEYIGKCL (tested as crude clonal phage supernatant) [Phage-522] | – | – | – | – | Phage binding ELISA, Anti-CD28 Fab signal in the presence of CD28 [7]: 0.07; Phage binding ELISA, Anti-CD28 Fab signal [8]: 2.37
YCDGHAKEYMWKCL (Clonal phage of the Peptide-87 library, tested as crude supernatant; not shown: pIII of the bacteriophage to which the peptide is fused) [Phage-554] | – | – | 0.07 | 2.3 | –
YCDGHVPEYMAKCL (Clonal phage of the Peptide-87 library, tested as crude supernatant; not shown: pIII of the bacteriophage to which the peptide is fused) [Phage-560] | – | – | 0.07 | 2.29 | –
YCDGHSREYIAKCL (Clonal phage of the Peptide-87 library, tested as crude supernatant; not shown: pIII of the bacteriophage to which the peptide is fused) [Phage-558] | – | – | 0.08 | 2.29 | –
YCDGHSPEYILKCL [Phage-545] | 0.09 | 2.31 | – | – | –

Binder | Phage binding ELISA, Anti-CD28 Fab signal in the presence of CD28 [3] | Phage binding ELISA, Anti-CD28 Fab signal [4] | Anti-CD28 Fab signal in the presence of CD28 [5] | Anti-CD28 Fab (SEQ ID NOs: 696, 697) signal [6] | also measured
YCAGHMPEYMAKCL (tested as crude clonal phage supernatant) [Phage-517] | – | – | – | – | Phage binding ELISA, Anti-CD28 Fab signal in the presence of CD28 [7]: 0.11; Phage binding ELISA, Anti-CD28 Fab signal [8]: 2.38
YCDGHLPQYMWKCL (Clonal phage of the Peptide-87 library, tested as crude supernatant; not shown: pIII of the bacteriophage to which the peptide is fused) [Phage-559] | – | – | 0.12 | 2.29 | –
YCDGHSSEYMAKCL (Clonal phage of the Peptide-87 library, tested as crude supernatant; not shown: pIII of the bacteriophage to which the peptide is fused) [Phage-565] | – | – | 0.09 | 2.28 | –
YCSGHLPQYMQKCL (Clonal phage of the Peptide-87 library, tested as crude supernatant; not shown: pIII of the bacteriophage to which the peptide is fused) [Phage-564] | – | – | 0.08 | 2.28 | –
YCDGHEPQYMLKCL [Phage-540] | 0.12 | 2.32 | – | – | –
YCDGHLPQYMMKCL (cysteine pairing not given here; also: displayed on phage by fusion to pIII, pIII and linker sequence not given here) [Phage-569] | – | – | – | – | Anti-CD28 Fab signal in the presence of CD28 [1]: 0.14; Anti-CD28 Fab signal [2]: 2.27
YCDGHTLEYMWKCL [Phage-547] | 0.13 | 2.31 | – | – | –
YCMGHAPEYMAKCL (tested as crude clonal phage supernatant) [Phage-520] | – | – | – | – | Phage binding ELISA, Anti-CD28 Fab signal in the presence of CD28 [7]: 0.09; Phage binding ELISA, Anti-CD28 Fab signal [8]: 2.38
YCAGHLPQYMSKCL (tested as crude clonal phage supernatant) [Phage-524] | – | – | – | – | Phage binding ELISA, Anti-CD28 Fab signal in the presence of CD28 [7]: 0.11; Phage binding ELISA, Anti-CD28 Fab signal [8]: 2.37
YCEGHSPEYMSKCL [Phage-541] | 0.07 | 2.31 | – | – | –
YCEGHAAEYMEKCL (Clonal phage of the Peptide-87 library, tested as crude supernatant; not shown: pIII of the bacteriophage to which the peptide is fused) [Phage-556] | – | – | 0.11 | 2.3 | –
YCDGHSQEYMMKCL (Clonal phage of the Peptide-87 library, tested as crude supernatant; not shown: pIII of the bacteriophage to which the peptide is fused) [Phage-563] | – | – | 0.06 | 2.28 | –
YCDGHLPIYMSQCL (tested as crude clonal phage supernatant) [Phage-525] | – | – | – | – | Phage binding ELISA, Anti-CD28 Fab signal in the presence of CD28 [7]: 0.12; Phage binding ELISA, Anti-CD28 Fab signal [8]: 2.36
YCEGHSAQYMSKCL (Clonal phage of the Peptide-87 library, tested as crude supernatant; not shown: pIII of the bacteriophage to which the peptide is fused) [Phage-557] | – | – | 0.07 | 2.29 | –
YCAGHSPEHMWKCL [Phage-550] | 0.06 | 2.3 | – | – | –
YCDGHAPEYMAKCL [Phage-549] | 0.09 | 2.3 | – | – | –
YCEGHLGIYMYKCL (cysteine pairing not given here; also: displayed on phage by fusion to pIII, pIII and linker sequence not given here) [Phage-571] | – | – | – | – | Anti-CD28 Fab signal in the presence of CD28 [1]: 0.14; Anti-CD28 Fab signal [2]: 2.26
YCDGHAAEYMAKCL (cysteine pairing not given here; also: displayed on phage by fusion to pIII, pIII and linker sequence not given here) [Phage-572] | – | – | – | – | Anti-CD28 Fab signal in the presence of CD28 [1]: 0.13; Anti-CD28 Fab signal [2]: 2.26
YCDGHLPEYMSKCM (tested as crude clonal phage supernatant) [Phage-518] | – | – | – | – | Phage binding ELISA, Anti-CD28 Fab signal in the presence of CD28 [7]: 0.14; Phage binding ELISA, Anti-CD28 Fab signal [8]: 2.38
YCAGHLPEYMPHCI [Phage-543] | 0.09 | 2.31 | – | – | –
YCDGHAPQYMRKCL (Clonal phage of the Peptide-87 library, tested as crude supernatant; not shown: pIII of the bacteriophage to which the peptide is fused) [Phage-553] | – | – | 0.07 | 2.3 | –
